Legend:
[1] = target: T1, human FcγRI (hFcγRI), coated on ELISA wells (human, UniProt P12314 16-288); assay: ELISA, hFcγRI-coated wells, NSO supernatant, Rb anti-PspA or Rb anti-HSA detection
T1 construct: also called CD64

[2] = target: T2, human FcγRI on hFcγRI-expressing U937 cells (human, UniProt P12314 16-374); assay: flow cytometry on U937 cells, NSO supernatant, in the presence of human IgG, Rb anti-PspA or Rb anti-HSA detection
T2 construct: whole, on cells; also called hFcγRI on U937 cells
T2 sequence (P12314 16-374): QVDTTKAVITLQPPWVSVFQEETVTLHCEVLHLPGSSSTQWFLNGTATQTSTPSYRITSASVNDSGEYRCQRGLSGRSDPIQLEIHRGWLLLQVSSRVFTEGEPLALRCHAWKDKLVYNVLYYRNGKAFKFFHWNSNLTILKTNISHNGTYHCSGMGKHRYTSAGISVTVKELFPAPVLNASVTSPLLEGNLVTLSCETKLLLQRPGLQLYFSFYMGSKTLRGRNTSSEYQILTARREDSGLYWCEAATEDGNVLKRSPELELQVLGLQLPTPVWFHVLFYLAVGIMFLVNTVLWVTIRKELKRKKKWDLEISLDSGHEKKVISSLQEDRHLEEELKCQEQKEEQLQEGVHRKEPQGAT

T1 sequence (P12314 16-288 limits assumed): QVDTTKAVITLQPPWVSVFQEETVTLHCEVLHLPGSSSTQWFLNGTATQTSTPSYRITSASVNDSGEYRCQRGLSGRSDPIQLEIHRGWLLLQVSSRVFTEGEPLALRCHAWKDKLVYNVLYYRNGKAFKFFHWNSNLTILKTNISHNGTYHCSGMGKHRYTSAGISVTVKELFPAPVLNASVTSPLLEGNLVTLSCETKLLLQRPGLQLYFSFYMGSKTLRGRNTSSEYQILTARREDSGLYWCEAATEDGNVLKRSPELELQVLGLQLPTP

B1: trivalent anti-hFcγRI-PspA fusion protein (other)
chain: DIQLTQSPSSLSASVGDRVTITCKSSQSVLYSSNQKNYLAWYQQKPGKAPKLLIYWASTRESGVPSRFSGSGSGTDFTFTISSLQPEDIATYYCHQYLSSWTFGQGTKVEIKSSGGGGSGGGGSGGGGSEVQLVESGGGVVQPGRSLRLSCSSSGFIFSDNYMYWVRQAPGKGLEWVATISDGGSYTYYPDSVKGRFTISRDNSKNTLFLQMDSLRPEDTGVYFCARGYYRYEGAMDYWGQGTPVTVSSGSTGGGGSTSAGGGGSSDIQLTQSPSSLSASVGDRVTITCKSSQSVLYSSNQKNYLAWYQQKPGKAPKLLIYWASTRESGVPSRFSGSGSGTDFTFTISSLQPEDIATYYCHQYLSSWTFGQGTKVEIKSSGGGGSGGGGSGGGGSEVQLVESGGGVVQPGRSLRLSCSSSGFIFSDNYMYWVRQAPGKGLEWVATISDGGSYTYYPDSVKGRFTISRDNSKNTLFLQMDSLRPEDTGVYFCARGYYRYEGAMDYWGQGTPVTVSSGSTGGGGSTASGGGGSSDIQLTQSPSSLSASVGDRVTITCKSSQSVLYSSNQKNYLAWYQQKPGKAPKLLIYWASTRESGVPSRFSGSGSGTDFTFTISSLQPEDIATYYCHQYLSSWTFGQGTKVEIKSSGGGGSGGGGSGGGGSEVQLVESGGGVVQPGRSLRLSCSSSGFIFSDNYMYWVRQAPGKGLEWVATISDGGSYTYYPDSVKGRFTISRDNSKNTLFLQMDSLRPEDTGVYFCARGYYRYEGAMDYWGQGTPVTVSSGSTGGGGSTEFMEESPVASQSKAEKDYDAAKKDAKNAKKAVEDAQKALDDAKAAQKKYDEDQKKTEEKAALEKAASEEMDKAVAAVQQAYLAYQQATDKAAKDAADKMIDEAKKREEEAKTKFNTVRAMVVPEPEQLAETKKKSEEAKQKAPELTKKLEEAKAKLEEAEKKATEAKQKVDAEEVAPQAKIAELENQVHRLEQELKEIDESESEDYAKEGFRAPLQSKLDAKKAKLSKLEELSDKIDELDAEIAKLEDQLKAAEENNNVEDYFKEGLEKTIAAKKAELEKTEADLKKAVNEPEKPAPAPETPAPELEHHHHHH
notes: Single-chain fusion: three humanized 22 (H22) anti-human FcγRI VL-VH scFv units, then PspA (S. pneumoniae strain Rx1) and a His tag; Tested as unpurified supernatant of transfected NSO cells; also called Trivalent Anti-FcγRI-PspA; Construct B
[1]
  binding result: binds
[2]
  binding result: binds
